The text below walks through data of patent US9687560B2, “Skin-permeating peptide” (LG Household & Health Care Ltd., priority 2012, dated 2017).

Entries after “also recorded” stand apart in the source; their conditions may differ. Primed or numbered codes have the meaning given here. Ends that are not written are not given here. Dansyl′ = dansyl group

Data set [1] has as its system porcine skin. The data set is described as follows: Skin permeability test of skin permeable peptide derivative (Franz glass cell, fluorescence). Type of data set: in vitro ADME. The method, then:
A dansyl group was linked at the C-terminus of each peptide having any one amino acid sequence of SEQ ID NOs. 1 to 10 which were selected in Example 1 so as to synthesize a derivative thereof, and it was intended to examine skin permeability thereof. In detail, each of the peptides was chemically synthesized, and then a dansyl group was added at the C-terminus of each peptide to synthesize a derivative thereof. As a control group, a peptide composed of the amino acid sequence of “[…] NO. 21)” which was prepared by adding a dansyl group at the C-terminus was used. […] Then, each derivative was added at the same concentration to the top of the cell, followed by incubation for 16 hours. After completion of the incubation, the amount of each derivative in the receiver at the bottom was measured using a victor fluorescence meter (340/520) to compare permeation degree (Table 2),

The test system of data set [2] is porcine skin. Kind of data set: Skin retention test of skin permeable peptide derivative (fluorescence). It counts as binding. To be noted: for Fluorescent intensity (340/520), amount of peptide derivative remaining in porcine skin: 10 minutes incubation with skin, washed ten times; for Level of peptide derivative remaining in the skin (in words): compared to control group / among the 10 peptides. The method, then: To examine skin binding affinity of the derivatives synthesized in Example 3, the porcine skin was reacted with each of the derivatives, and the amount of the peptide dissolved in the surface was measured. In detail, the porcine skin was cut and put in a 1.5 ml tube, and 500 μl of TBS (1% BSA) was added thereto. […] After incubation, washing was performed using TBS (1% BSA) at 12,000 RPM for 1 minute ten times, and the porcine skin in which the reaction was completed was transferred to a 24-well plate. The amount of the peptide remaining on the surface was measured using a victor fluorescence meter (340/520) and compared (Table 4).

The test system of data set [3] is porcine skin. The data set is described as follows: Skin retention test of phage including skin permeable peptide (anti-M13 antibody-HRP, absorbance). Type of data set: binding. To be noted: compared to control group / among the 10 peptides. From the text:
Skin permeation mainly occurs by the mechanism of a diffusion of a substance dissolved in the components of the skin from the outermost layer to the innermost layers. Through this mechanism, an active ingredient can be effectively delivered throughout the skin. The skin surface is composed of corneocytes and intercellular materials. […] In this case, the product first binds to the skin, and then diffuses into the inner layer. Therefore, binding affinity of the selected phages to the skin was measured to examine the superiority of the peptides.
To measure the amount of the phage binding to the porcine skin, anti-M13 antibody-HRP conjugate was used. […] The porcine skin thus cut was put in a 1.5 ml tube, and 500 μl of TBS (1% BSA) was added thereto. […] Thereafter, they were washed using 1% BSA-containing TBS solution at 12,000 RPM for 1 minute 10 times. Subsequently, 500 μl of TBS solution containing anti-M13 antibody-HRP (Horseradish peroxidase) conjugate-containing 1% BSA was added, followed by incubation for 5 minutes. TBS solution containing 1% BSA was added to the culture, followed by washing at 12,000 RPM for 1 minute 10 times. The residual buffer was completely removed, and TMB solution (Tetramethylbenzidine solution, Amersham) was further added. […] Then, absorbance (450 nm) was measured to determine binding affinity between phage-skin.

In the case of “S3-1 peptide derivative: peptide NQTDHLFSTFIS (SEQ ID NO. 1) with a dansyl group added at the C-terminus (NQTDHLFSTFIS-{Dansyl′})”, in the data set on porcine skin [1], the “Fluorescence intensity (340/520), amount of porcine skin-permeating peptide derivative” value (“Fluorescence intensity (340/520), amount” for short) was found to be 42000 and the “Skin permeability of peptide derivative (in words)” value (shortened to “Skin permeability”) is on record as “relatively excellent skin permeability”. In the data set with porcine skin [2], the “Fluorescent intensity (340/520), amount of peptide derivative remaining in porcine skin” value was 143000 and the “Level of peptide derivative remaining in the skin (in words)” value (shortened to “Level of peptide derivative remaining”) is “relatively high level”.
On to “S3-2 peptide derivative: peptide NGSLNTHLAPIL (SEQ ID NO. 2) with a dansyl group added at the C-terminus (NGSLNTHLAPIL-{Dansyl′})”, for which the “Fluorescence intensity (340/520), amount” value in the data set on porcine skin [1] turned out to be 70000. Further, the “Skin binding affinity / skin retention of phage (in words)” value in the data set on porcine skin [3] is listed as “highest skin binding affinity”. Moreover, in the data set with porcine skin [2], the “Fluorescent intensity (340/520), amount of peptide derivative remaining in porcine skin” value was found to be 260000 and the “Level of peptide derivative remaining” value is given as “relatively high level; also recorded: highest level”.
For the substance “S3-3 peptide derivative: peptide GGSIAASELEYY (SEQ ID NO. 3) with a dansyl group added at the C-terminus (GGSIAASELEYY-{Dansyl′})”, in the data set with porcine skin [1], the “Fluorescence intensity (340/520), amount” value turned out to be 19000 and the “Skin permeability” value was “relatively excellent skin permeability”. In addition, in the data set on porcine skin [2], the “Fluorescent intensity (340/520), amount of peptide derivative remaining in porcine skin” value amounted to 47000.
For the substance “S3-7 peptide derivative: peptide ELKQVVISDINH (SEQ ID NO. 4) with a dansyl group added at the C-terminus (ELKQVVISDINH-{Dansyl′})”, in the data set with porcine skin [1], the “Fluorescence intensity (340/520), amount” value is 25000 and the “Skin permeability” value is on record as “relatively excellent skin permeability”. In the data set with porcine skin [2], the “Fluorescent intensity (340/520), amount of peptide derivative remaining in porcine skin” value turned out to be 98000 and the “Level of peptide derivative remaining” value is on record as “relatively high level”.
For the substance “S3-8 peptide derivative: peptide MVRDHPGLSGWT (SEQ ID NO. 5) with a dansyl group added at the C-terminus (MVRDHPGLSGWT-{Dansyl′})”, in the data set on porcine skin [1], the “Fluorescence intensity (340/520), amount” value was determined as 22000 and the “Skin permeability” value is on record as “relatively excellent skin permeability”. Moreover, in the data set on porcine skin [2], the “Fluorescent intensity (340/520), amount of peptide derivative remaining in porcine skin” value came to 100000 and the “Level of peptide derivative remaining” value is “relatively high level”.
Consider “S3-9 peptide derivative: peptide TSGISINKLPHT (SEQ ID NO. 6) with a dansyl group added at the C-terminus (TSGISINKLPHT-{Dansyl′})”, for which, in the data set with porcine skin [1], the “Fluorescence intensity (340/520), amount” value is given as 18000 and the “Skin permeability” value was “relatively excellent skin permeability”. Besides, in the data set with porcine skin [2], the “Fluorescent intensity (340/520), amount of peptide derivative remaining in porcine skin” value is 47000.
In the case of “S4-4 peptide derivative: peptide IFAALDYNLGRH (SEQ ID NO. 7) with a dansyl group added at the C-terminus (IFAALDYNLGRH-{Dansyl′})”, the “Fluorescence intensity (340/520), amount” value with porcine skin [1] turned out to be 4400. For the same substance, the “Fluorescent intensity (340/520), amount of peptide derivative remaining in porcine skin” value with porcine skin [2] was determined as 13200.
The matching figures for “S4-7 peptide derivative: peptide DMKWTLKEWMTH (SEQ ID NO. 8) with a dansyl group added at the C-terminus (DMKWTLKEWMTH-{Dansyl′})”: 8600 and 37600.
As to “S4-9 peptide derivative: peptide QIEKHVYFNASQ (SEQ ID NO. 9) with a dansyl group added at the C-terminus (QIEKHVYFNASQ-{Dansyl′})”, in the data set with porcine skin [1], the “Fluorescence intensity (340/520), amount” value is recorded as 16000 and the “Skin permeability” value is “relatively excellent skin permeability”. For the same substance, the “Fluorescent intensity (340/520), amount of peptide derivative remaining in porcine skin” value in the data set with porcine skin [2] is listed as 56000.
In the case of “S4-10 peptide derivative: peptide TNIPSLSGILMK (SEQ ID NO. 10) with a dansyl group added at the C-terminus (TNIPSLSGILMK-{Dansyl′})”, the “Fluorescence intensity (340/520), amount” value with porcine skin [1] is listed as 9000. In addition, the “Fluorescent intensity (340/520), amount of peptide derivative remaining in porcine skin” value in the data set with porcine skin [2] is on record as 25000.
